These results are taken from article PMC6899989.

The target of experiment [1] is full-length RpBphP1, SAXS sample (gene PCR amplified from Rps. palustris strain 2.1.6, in pET28a) (Rhodopseudomonas palustris). Briefly: SAXS; 5 mM Tris pH 8, 1 and 4 mg/mL, 8 °C; dark-purified protein measured in darkness (Pfr state); mass by SAXS MoW2, ab-initio envelopes.
The target is the same in experiment [2]. Briefly: SAXS; 5 mM Tris pH 8, 1 and 4 mg/mL, 8 °C; continuous illumination with 760 nm light (Pr state); mass by SAXS MoW2, ab-initio envelopes.
The target in experiment [3] is N-terminal His6-tagged RpPpsR2 (gene repressor from Rhodopseudomonas palustris) (Rhodopseudomonas palustris). Put plainly: pull-down; Ni(II)-affinity chromatography on 1 mL His-Trap HP; His6-RpPpsR2 mixed 1:4 with untagged RpBphP1 or RpBphP1ΔHOS; illuminated for 5 min with 760 nm light (Pr state); imidazole elution monitored at 280 and 400 nm; SDS/PAGE scan of peak BP.

Experiment [4] shares this target. Briefly: SEC; RpPpsR2 in 5 mM DTT. (In gel filtration, larger molecules generally elute earlier.)
In experiment [5] the target is RpBphP1, sample used for size exclusion chromatography (synthesised gene) (Rhodopseudomonas palustris). Put plainly: SEC; Superose 12 10/300 GL, 200 μL at 1-4 mg/mL, 5 mM TrisHCl pH 8, 10 mM NaCl; after illumination with 760 nm light for 5 min (Pr state).
The target is the same in experiment [6]. Put plainly: SEC; Superose 12 10/300 GL, 200 μL at 1-4 mg/mL, 5 mM TrisHCl pH 8, 10 mM NaCl; in the dark (Pfr state).

The stoichiometry N is a count of units in the complex or per binding partner. “full-length RpBphP1, SAXS sample (gene PCR amplified from Rps. palustris strain 2.1.6, in pET28a) (natural protein)”: the stoichiometry N in experiment [1] and in experiment [2] was 2 throughout. As for “untagged full-length RpBphP1 (bacteriophytochrome from Rhodopseudomonas palustris) (natural protein)”, the stoichiometry N (RpBphP1 per RpPpsR2) in experiment [3] is 2. For “N-terminal His6-tagged RpPpsR2 (gene repressor from Rhodopseudomonas palustris) (natural protein)”, the stoichiometry N in experiment [4] was 2. Regarding “RpBphP1, sample used for size exclusion chromatography (synthesised gene) (natural protein)”, the stoichiometry N in experiment [5] and in experiment [6] was 2 each time.
